{
  "source": "paper PMC1934351",
  "key": {"[1]": {"test_system": "L1 repressor CI (native, untagged) (Mycobacteriophage L1)", "experiment": "equilibrium binding", "settings": "data not shown; EMSA in Buffer A (binding buffer composition not given in material) with 10 ug/ml BSA, ~0.1 nM 32P-labeled operator, 20 ul, 25 C for 20 min (also 32, 37, 42 C …)"}, "[2]": {"target": "C-terminal domain (CTD) of L1 repressor CI (mycobacteriophage L1)", "experiment": "cross-linking; 0.1% glutaraldehyde for 2 min after 20 min at 25°C in Buffer A, ~0.5 uM protein, SDS-10% PAGE, silver staining; monomer to dimer"}, "[3]": {"target": "C-terminal domain (CTD) of L1 repressor CI (mycobacteriophage L1)", "experiment": "SEC; analytical HPLC gel filtration (Protein Pak, Waters) in Buffer A minus PMSF; ~20 uM protein loaded; column calibrated with BSA, ovalbumin, carbonic anhydrase, lysozyme; monomer to dimer"}, "[4]": {"target": "N-terminal histidine-tagged repressor (CI) of temperate mycobacteriophage L1 (mycobacteriophage L1)", "experiment": "cross-linking; 0.1% glutaraldehyde for 2 min after 20 min at 25°C in Buffer A, ~0.5 uM protein, SDS-10% PAGE, silver staining; monomer to dimer"}, "[5]": {"target": "N-terminal histidine-tagged repressor (CI) of temperate mycobacteriophage L1 (mycobacteriophage L1)", "experiment": "SEC; analytical HPLC gel filtration (Protein Pak, Waters) in Buffer A minus PMSF; ~20 uM protein loaded; column calibrated with BSA, ovalbumin, carbonic anhydrase, lysozyme; monomer to dimer"}, "[6]": {"test_system": "L1 repressor CI (native, untagged) (Mycobacteriophage L1)", "experiment": "EMSA", "settings": "EMSA in Buffer A (binding buffer composition not given in material) with 10 ug/ml BSA, ~0.1 nM 32P-labeled operator, 20 ul, 25 C for 20 min (also 32, 37, 42 C …); for Kd: 25 C, apparent Kd at 50% saturation"}},
  "data": [
    {"substance": "21 bp DNA carrying O64 operator", "values": [
      {"measurement": "binding signal (fold higher affinity than N4)", "setting": "[1]", "result": 2.57}
    ]},
    {"substance": "21 bp DNA carrying OL operator", "values": [
      {"measurement": "binding signal (affinity relative to N3 (1/2.57))", "setting": "[1]", "result": 0.389}
    ]},
    {"substance": "C-terminal domain (CTD) of L1 repressor CI (domain or fragment)", "values": [
      {"measurement": "stoichiometry N", "setting": "[2]", "result": 2},
      {"measurement": "stoichiometry N", "setting": "[3]", "result": 2}
    ]},
    {"substance": "N-terminal histidine-tagged repressor (CI) of temperate mycobacteriophage L1", "values": [
      {"measurement": "stoichiometry N", "setting": "[4]", "result": 2},
      {"measurement": "stoichiometry N", "setting": "[5]", "result": 2}
    ]},
    {"substance": "O64 (~120 bp)", "values": [
      {"measurement": "Kd", "setting": "[6]", "result": 140, "unit": "nM"},
      {"measurement": "binding signal (fold decrease of affinity vs 25 C)", "setting": "[6]", "result": 6}
    ]},
    {"substance": "OL (97 bp)", "values": [
      {"measurement": "Kd", "setting": "[6]", "result": 370, "unit": "nM"}
    ]}
  ]
}
